# Source: PMC8852740, “Neutralization of Typhoid Toxin by Alpaca-Derived, Single-Domain Antibodies Targeting the PltB and CdtB Subunits” (Infection and Immunity, 2021)
# Where a chain is given by its changes, count along the chain named. Values joined by “and” are separate entries in the source; they are usually repeats but may differ in a detail not shown here. Equal entries are not always repeated.
# B1: T2E7 (VHH)
# VHH: QLQLVESGGGLVQPGGSLRLSCAASGFTLDYYAIGWFRQAPGKERERVSCISGRDGGTYYADSVKGRFAISRDNAQNTVYLQMSRLKPEDTAAYYCAADYADNYCTGSFPPDYWGQGTQVTVSS
# notes: also called anti-PltB VHH T2E7; source: E. coli Rosetta-gami 2(DE3)pLacI, pET32b+, purified (Ni-NTA)
# B2: T2G9 (VHH)
# VHH: QVQLVETGGGSVQAGGSLRLSCAASGFTFDDYAIGWFRQAPGKEREMILCINSRGGSTSYYADSVKGRFTVSVNSAKNTAYLQMNSLKPEDTAVYYCAADVTPPHSCNALDAWGQGTLVTVSS
# notes: also called anti-PltB VHH T2G9; source: E. coli Rosetta-gami 2(DE3)pLacI, pET32b+, purified (Ni-NTA)
# B3: T4C4 (VHH)
# VHH: QVQLAESGGGLVQPGGSLRLSCAASGSIFSINVMGWYRQAPGKQRESVAVITRGGGTMYADSVKGRATISRDSAKNTVYLQMNSLKPEDTAVYYCNADLMQAVDSEYEDYWGQGTQVTVSS
# notes: also called anti-CdtB VHH T4C4; source: E. coli Rosetta-gami 2(DE3)pLacI, pET32b+, purified (Ni-NTA)
# B4: T4C12 (VHH)
# VHH: B3 VHH with S47F, G56S, M58D, A67F, S73N, A102T, V103S, D104A, Y110C
# notes: also called anti-CdtB VHH T4C12; source: E. coli Rosetta-gami 2(DE3)pLacI, pET32b+, purified (Ni-NTA)
# B5: T4E5 (VHH)
# VHH: QLQLVETGGGLVQPGGSLKLSCVASGSIFSINVMGWFRQASGKQREVVAQITRGGGTIYADSVKGRFTISRDDAKNSVYLQMNSLNPEDTAVYLCNADLMQGIDSEYEDYWGQGTQVTVSS
# notes: also called anti-CdtB VHH T4E5; source: E. coli Rosetta-gami 2(DE3)pLacI, pET32b+, purified (Ni-NTA)
# B6: T4E8 (VHH)
# VHH: QLQLVESGGGLVQAGGSLRLSCAASGMSFSTYTMGWYRQAPGKRRGLVATISSGGSTNYADSVKGRFTISRDNAKDTVYLQMNSLKPEDTAEYYCNVKGDYQTPNMGYWGQGTRVTVSS
# notes: also called anti-CdtB VHH T4E8; source: E. coli Rosetta-gami 2(DE3)pLacI, pET32b+, purified (Ni-NTA)
# B7: T4B5 (VHH)
# VHH: QLQLAESGGGLVQPGGSLRLSCAASGSIFSINVMGWYRQVPGKQREWVASITRGGGTLYADSVKGRFTISRDSAKNTVYLQMNSLKPEDTAVYYCNADLMEDSDSDYHEYWGQGTQVTVSS
# notes: also called anti-CdtB VHH T4B5; source: E. coli Rosetta-gami 2(DE3)pLacI, pET32b+, purified (Ni-NTA)
# B8: T4C11 (VHH)
# VHH: B3 VHH with V2L, A5V, S7T, V33I, A67F
# notes: also called anti-CdtB VHH T4C11; source: E. coli Rosetta-gami 2(DE3)pLacI, pET32b+, purified (Ni-NTA)
# B9: T4F3 (VHH)
# VHH: QLQLVETGGGLVQPGGSLTLSCAASGFTLNYWHMGWYRQAPGKQRELVATISGHGITNYADSVKGRFTISRDDAKNSVYLQMNSLKPEDTAVYYCNFISRTNDWGQGTQVTVSS
# notes: also called anti-CdtB VHH T4F3; source: E. coli Rosetta-gami 2(DE3)pLacI, pET32b+, purified (Ni-NTA)
# Assays:
# Conditions in all cases: both partners purified
# [1] = target: T1, PltB homopentamer, biotinylated (Salmonella enterica serovar Typhi; …, UniProt Q8Z6A3, biotinylated with EZ-link NHS-Biotin (sites not given)); assay: ELISA; […] (30 min, 37°C) […]
# T1 construct: also called PltB5; pentameric PltB subunits
# [2] = target: T2, typhoid toxin (A2B5 holotoxin: CdtB, PltA and a PltB homopentamer), biotinylated (Salmonella enterica serovar Typhi; …, UniProt Q8Z6A7;Q8Z6A4;Q8Z6A3); assay: BLI; Octet Red96e; […] (2 µg/mL) […]; association 5 min, dissociation 30 min; 25°C; 1:1 model; […]
# T2 construct: also called TyT; biotinylated typhoid toxin; not shown: His6, C-terminal, kept; copies: 1 + 1 + 5
# [3] = target: T3, typhoid toxin (A2B5 holotoxin: CdtB, PltA and a PltB homopentamer), biotinylated (Salmonella enterica serovar Typhi; …, UniProt Q8Z6A7;Q8Z6A4;Q8Z6A3); assay: as above; remark: listed apart in the source
# T3 construct: also called TyT; biotinylated typhoid toxin; not shown: His6, C-terminal, kept; copies: 1 + 1 + 5
# [4] = target: T3, typhoid toxin (A2B5 holotoxin: CdtB, …); assay: ELISA; […] (30 min, 37°C) […]
binder,measurement,setting,value
B1,binding result,[1],binds
same,Kd,[2],0.629 nM and 0.618 nM and 0.911 nM
same,koff,[2],0.000278 s⁻¹ and 0.000313 s⁻¹ and 0.000369 s⁻¹
same,kon,[2],443000 M⁻¹ s⁻¹ and 507000 M⁻¹ s⁻¹ and 405000 M⁻¹ s⁻¹
B2,binding result,[1],binds
same,kon,[2],155000 M⁻¹ s⁻¹ and 139000 M⁻¹ s⁻¹ and 105000 M⁻¹ s⁻¹
B3,Kd,[3],0.284 nM and 0.11 nM
same,koff,[3],0.000264 s⁻¹ and 0.00026 s⁻¹
same,kon,[3],929000 M⁻¹ s⁻¹ and 2.36e+06 M⁻¹ s⁻¹
B4,Kd,[3],2.84 nM and 1.55 nM
same,koff,[3],0.00121 s⁻¹ and 0.00243 s⁻¹
B5,kon,[3],424000 M⁻¹ s⁻¹ and 382000 M⁻¹ s⁻¹ and 306000 M⁻¹ s⁻¹
B6,Kd,[2],2.03 nM and 4.44 nM
same,kon,[2],53300 M⁻¹ s⁻¹ and 73600 M⁻¹ s⁻¹
B7,binding result,[4],binds
B8,binding result,[4],binds
B9,binding result,[4],binds
